Assay results: paper PMC12373785, “Biochemical characterisation supports a central role for Oep80 from Arabidopsis thaliana in chloroplastic β-barrel protein assembly” (Communications Biology, 2025)

B1: Oep80^β-6×His (β-barrel domain of Arabidopsis thaliana Oep80, C-terminal 6×His) (domain or fragment, A. thaliana, UniProt Q9C5J8 398-732, looked up)
chain: SGGFSAGGGISSGITSGPLSGLIGSFAYSHRNLFGRNQKLNVSLERGQIDSIFRINYTDPWIEGDDKRTSRSIMVQNSRTPGNLVHGNQPDNSSLTIGRVTAGVEYSRPFRPKWNGTAGLIFQHAGARDEQGNPIIKDFYSSPLTASGKPHDETMLAKLESIYTGSGDQGSTMFAFNMEQGLPVLPEWLCFNRVTGRARKGIHIGPARFLFSLSGGHVVGKFSPHEAFVIGGTNSVRGYEEGAVGSGRSYVVGSGELSFPVRGPVEGVIFTDYGTDMGSGSTVPGDPAGARLKPGSGYGYGLGVRVDSPLGPLRLEYAFNDQHAGRFHFGVGLRN
notes: AtOep80 (also known as Toc75-V), A. thaliana, β barrel domain, residues 398-732; Mostly dimeric in solution by native MS; Cloned in modified Pet15b for the C-terminal 6×His; also called AtOep80 β barrel domain; Toc75-V β-barrel domain; not shown: His6, C-terminal, kept

Legend:
[1] = target: Oep80^β mutant with the Oep21a β-1 peptide sequence covalently attached via a flexible GS linker (A. thaliana) (UniProt Q9C5J8); assay: native MS; protein alone, buffer-exchanged into 200 mM ammonium acetate pH 8.0, 0.5% C8E4; for the oxidised C587S/S408C/G727C mutant 0.1 mM CuSO4 pre-incubated 4 h before buffer exchange; monomer and dimer charge state series
[2] = target: the molecule itself; assay: as above
[3] = target: B1; assay: native MS; 100 µM peptide with 7 µM Oep80^β-6×His in 200 mM ammonium acetate pH 8.0, 0.5% C8E4; peptide-bound relative to unbound species, n = 4; conditions: both partners purified

| binding result [3] | Molecule | stoichiometry N [2] | also measured |
| --- | --- | --- | --- |
|  | Oep80^β mutant with the Oep21a β-1 peptide sequence covalently attached via a flexible GS linker (from UniProt Q9C5J8 398-732) |  | stoichiometry N [1]: 2 |
|  | B1 | 2 |  |
|  | 6×His-Oep80^β (N-terminally tagged β-barrel domain of A. thaliana Oep80) (domain or fragment, UniProt Q9C5J8 398-732, looked up, AtOep80 (Toc75-V), A. thaliana, β barrel domain, residues 398-732; Cloned in Pet28a (N-terminal 6×His, removable by thrombin); also called tagged Oep80^β; 6×His-tagged version; not shown: His6, N-terminal, kept) SGGFSAGGGISSGITSGPLSGLIGSFAYSHRNLFGRNQKLNVSLERGQIDSIFRINYTDPWIEGDDKRTSRSIMVQNSRTPGNLVHGNQPDNSSLTIGRVTAGVEYSRPFRPKWNGTAGLIFQHAGARDEQGNPIIKDFYSSPLTASGKPHDETMLAKLESIYTGSGDQGSTMFAFNMEQGLPVLPEWLCFNRVTGRARKGIHIGPARFLFSLSGGHVVGKFSPHEAFVIGGTNSVRGYEEGAVGSGRSYVVGSGELSFPVRGPVEGVIFTDYGTDMGSGSTVPGDPAGARLKPGSGYGYGLGVRVDSPLGPLRLEYAFNDQHAGRFHFGVGLRN | 2 |  |
|  | untagged Oep80^β (6×His-Oep80^β after thrombin cleavage) (domain or fragment, A. thaliana, UniProt Q9C5J8 398-732, looked up, AtOep80 (Toc75-V), A. thaliana, β barrel domain, residues 398-732; also called tag-free Oep80^β; not shown: His6, N-terminal, cleaved) SGGFSAGGGISSGITSGPLSGLIGSFAYSHRNLFGRNQKLNVSLERGQIDSIFRINYTDPWIEGDDKRTSRSIMVQNSRTPGNLVHGNQPDNSSLTIGRVTAGVEYSRPFRPKWNGTAGLIFQHAGARDEQGNPIIKDFYSSPLTASGKPHDETMLAKLESIYTGSGDQGSTMFAFNMEQGLPVLPEWLCFNRVTGRARKGIHIGPARFLFSLSGGHVVGKFSPHEAFVIGGTNSVRGYEEGAVGSGRSYVVGSGELSFPVRGPVEGVIFTDYGTDMGSGSTVPGDPAGARLKPGSGYGYGLGVRVDSPLGPLRLEYAFNDQHAGRFHFGVGLRN | 2 |  |
|  | Oep80^β C587S/S408C/G727C (domain or fragment, A. thaliana, UniProt Q9C5J8 398-732, looked up, intramolecular disulfide between the introduced cysteines 408 and 727 (after Cu2+ incubation), AtOep80, A. thaliana, β barrel domain, residues 398-732, with native cysteine C587 removed and cysteines introduced in the β1 and β-1 strands) SGGFSAGGGICSGITSGPLSGLIGSFAYSHRNLFGRNQKLNVSLERGQIDSIFRINYTDPWIEGDDKRTSRSIMVQNSRTPGNLVHGNQPDNSSLTIGRVTAGVEYSRPFRPKWNGTAGLIFQHAGARDEQGNPIIKDFYSSPLTASGKPHDETMLAKLESIYTGSGDQGSTMFAFNMEQGLPVLPEWLSFNRVTGRARKGIHIGPARFLFSLSGGHVVGKFSPHEAFVIGGTNSVRGYEEGAVGSGRSYVVGSGELSFPVRGPVEGVIFTDYGTDMGSGSTVPGDPAGARLKPGSGYGYGLGVRVDSPLGPLRLEYAFNDQHAGRFHFCVGLRN | 2 |  |
| binds | GKWNVRYDL (also called Oep21a β-signal peptide; Oep21a β-1 w.t; source: synthetic peptide, bought: Proteogenix (99% purity)) [Oep21a β-1 wild-type peptide] |  |  |
| binds | GKWNVRYAL (A. thaliana Oep21a β-1, residues 159-167, penultimate residue D changed to A; also called D-to-A mutant; source: synthetic peptide, bought: Proteogenix (99% purity)) [Oep21a β-1 D-to-A peptide] |  |  |
| binds | GKWNVRYEL (A. thaliana Oep21a β-1, residues 159-167, penultimate residue D changed to E; also called D-to-E mutation; source: synthetic peptide, bought: Proteogenix (99% purity)) [Oep21a β-1 D-to-E peptide] |  |  |
